Assay results from the supplement of paper PMC10567573.

B1: SLC6A17 (parent)
chain: HMFTPKLDKMLDPQVWREAATQVF
B2: KRT15 (parent)
chain: SNFHINVEESVDGQVVSSHKREI

Variants of: B1
Assay: protein stability index of a GFP-peptide fusion (GPS, HEK-293T) (PSI 1-6); higher = more stable
Settings: c terminus: a fixed tail appended
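Further: lentivirally expressed fusions sorted by FACS into six bins by GFP to DsRed ratio, PSI derived from sequencing read proportions per bin multiplied by bin number.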

Protein stability index, by site and new letter:
V23: E 2.9 | L 1.58 | W 1.75 | A 2.02 | M 1.55 | S 2.05 | I 1.89 | T 2.02 | D 3.65 | F 2.16 | Y 2.17 | G 2.2 | C 2.99 | Q 1.74 | N 2.07 | R 3.06 | H 2.02 | P 2.2 | K 2.48
A20: K 2.38 | F 1.43 | E 2.41 | D 2.24 | L 2.6 | Q 1.7 | G 1.82 | P 1.48 | T 2.19 | S 2.03 | V 1.22 | C 1.82 | R 1.87 | N 1.94 | I 2.21 | H 1.26
A19: P 2.24 | M 1.5 | L 1.48 | W 1.35 | Q 2.35 | I 1.91 | K 1.79 | V 2.15 | Y 2.12 | S 1.52 | T 2.56 | N 2.35 | R 2.03
F24: S 3.39 | T 2.38 | L 2.7 | Q 2.64 | V 2.69 | H 2.18 | N 2.67 | D 3.56 | Y 1.88 | C 1.97 | A 2.29 | R 2.85 | I 1.54 | K 3.81 | P 3.17 | M 2.96
T21: S 1.94 | A 1.91 | G 2.13 | H 1.76 | F 3.23 | P 2.46 | C 1.06 | M 1.54 | L 1.88 | K 3.06 | D 2.36 | W 2.48 | E 2.42 | Q 1.28 | I 1.48 | N 2.21 | R 1.84 | Y 1.54 | V 1.71
Q22: D 2.43 | P 1.67 | H 1.64 | Y 1.85 | M 3.21 | K 2.52 | R 1.77 | T 1.82 | C 1.81 | G 1.93 | W 2.1 | E 1.9 | I 1.45 | A 1.36 | L 1.68 | N 2.5 | S 1.9

Variants of: B2
Assay: as above
Settings: c terminus: native

Protein stability index, by site and new letter:
H4: K 1.94 | Y 2.37 | V 1.03 | F 1.49 | E 3.18 | A 1.98 | G 2.5 | P 2.57 | R 1.6 | C 2.78 | Q 1.52 | I 2.12 | T 1.43 | N 2.09 | D 2.63 | S 2.16 | M 1.59
D12: V 2.65 | H 2.38 | E 2.21 | Q 2.07 | I 1.34 | M 2.69 | T 2.21 | W 3.13 | K 1.31 | P 1.95 | Y 1 | C 3.28 | N 1.82 | G 1.45 | S 2.07 | R 3.65
V11: C 2.69 | A 1.94 | S 2.48 | F 3.87 | P 2.33 | D 2.09 | R 1.46 | Y 1.44 | K 1.53 | I 2.17 | M 1.85 | Q 2.3 | L 1.34 | E 2.36 | T 1.67 | G 1.7 | H 1.83 | N 2.33 | W 1.86
V7: L 1.34 | C 4 | Q 2.88 | P 2.14 | I 2.18 | R 2.78 | K 2.1 | D 2.01 | S 2.12 | T 3.07 | N 2.1 | G 3.08 | M 1.14 | W 2.64 | A 2.76 | Y 1.36 | H 2.11 | E 3.63
I5: R 2.67 | A 3.14 | P 2.98 | Q 3.1 | D 3.64 | H 3.01 | L 1.71 | V 3.37 | G 2.8 | T 3.02 | M 2.59 | E 3.97 | S 3.06 | W 1.63 | Y 1.24 | C 4.36 | K 2.14 | N 3.36 | F 2.22
E8: H 1.78 | F 3.87 | C 2.07 | Q 1.59 | K 2.28 | D 1.8 | I 2.73 | W 2.41 | N 1.9 | Y 2.88 | G 1.42 | P 2.47 | V 1.32 | S 2.03 | R 2.02 | L 2.02 | A 1.57 | T 1.34
Q14: K 2.35 | D 2.33 | P 2.34 | A 2.04 | I 1.55 | L 1.65 | M 1.32 | C 2.21 | R 2.01 | H 1.6 | N 2.05 | F 1.99
F3: N 2.78 | S 1.91 | V 2.18 | Y 1.61 | L 1.84 | R 2.87 | C 4.67 | K 2.7 | I 2.77 | M 2.2 | Q 2.5 | P 2.15 | T 2.69 | H 3.1 | E 2.33 | D 3.01 | A 2.51
E9: G 1.54 | A 2.02 | S 1.45 | T 2.17 | M 3.34 | N 1.95 | H 2.1 | K 1 | Q 1.47 | P 2.26 | R 1.89 | C 2.73 | D 2.21 | F 3.74
N6: F 2.11 | S 1.63 | K 1.78 | T 2.42 | I 3.69 | Y 1.06 | H 2.28 | P 1.9 | C 1.9 | G 2.24 | Q 2.27 | E 1.88 | D 1.54 | L 2.23 | M 2.11
S10: Q 1.81 | Y 2.62 | P 1.91 | I 1.34 | E 2.57 | N 2.09 | C 3.07 | R 2.21 | T 1.91 | A 2.85 | D 2.95 | F 1.43 | V 1.87 | H 1.95 | L 1.38 | K 1.5 | G 2.19
G13: F 1.86 | Y 2.59 | L 1.78 | H 1.64 | E 1.89 | Q 1.96 | K 2.29 | N 2.3 | C 1.98 | S 1.81 | I 2.02 | D 2.36 | R 2.35 | P 2.19 | T 2.18 | V 1.55 | A 2.73
S1: D 3.04 | P 2.35 | Y 1.23 | G 1.39 | I 2.56 | M 1.31 | W 2.31 | F 3.46 | R 2.66 | N 2.03 | V 1.78 | C 1.57 | Q 1.92 | T 2.73 | A 2.11 | K 1.69 | H 2.44
N2: F 2.6 | A 1.57 | H 2.79 | C 2.13 | P 3.02 | I 2.85 | S 1.96 | M 2.04 | T 1.9 | V 1.71 | K 1.36 | D 1.78 | L 2.23 | Y 1.68 | W 2.14 | R 1.39 | E 1.69 | G 1.87
